Results as given in patent US20050032118A1, “Nitrophenyl derivatives that can be activated by light” (priority 1996, published 2005).

Assay: Photolysis of nitrobenzyl-BSA conjugates with ultraviolet light (365 nm), residues counted by spectrophotometry
Conditions: for residues removed on irradiation with light: BSA as model protein, 8-15 residues bound, approximately 10 mins; for NBE residues cleaved from the protein / NBE residues cleaved: UV 10 min

| Compound | residues removed on irradiation with light | NBE residues cleaved from the protein (3 NBE residues bound per protein molecule (50 mg sample)) [residues] | NBE residues cleaved (3.5 NBE residues per BSA molecule) [residues] | NBE residues cleaved (6.9 NBE residues per BSA molecule) [residues] | NBE residues cleaved (10.8 NBE residues per BSA molecule) [residues] | NBE residues cleaved (14.5 NBE residues per BSA molecule) [residues] | NBE residues cleaved from the protein (14.8 NBE residues bound per protein molecule (25 mg sample)) [residues] |
| --- | --- | --- | --- | --- | --- | --- | --- |
| O=[N+]([O-])c1ccccc1CO [NBA, 2-nitrobenzyl alcohol] | ~65% | – | – | – | – | – | – |
| NBE-BSA conjugates: bovine serum albumin randomly coated with NBE residues through nitrobenzyloxycarbonyl chloride | – | 3 | 2.5 | 6.0 | 10 | 14 | 14 |
| CC(O)Cc1ccccc1[N+](=O)[O-] (centres unmarked) [NBE, 1-(2-nitrobenzyl)ethanol] | about 95% | – | – | – | – | – | – |
